Assay: yeast display, Sf9 membrane polyspecificity reagent, FACS + sequencing; frameworks hold sequencing errors
How it was run: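 A nanobody's polyreactivity label depends on the gate it was sorted from. Yeast display cells were stained with 10% biotinylated, detergent-solubilized Sf9 membrane reagent for 1 hour at 4 °C, enriched on streptavidin microbeads and sorted by FACS. The low and high (top ~1%) gates were set on anti-HA fluorescence for expression and streptavidin fluorescence for reagent binding.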

Sequence | polyreactivity (PSR sort gate)
QVQLVESGGGLVQAGGSLRLSCAASGLIFGPYAMGWYRQAPGKERELVAAITSSGGSTYYADSVKGRFTISRDNAKNTVYLQMNSLKPEDTAVYSCAARGSPRYYARYNYWGQGTQVTVSS | low polyreactivity
QVQLVESGGGLVQAGGSLRLSCAASGLIFGRNVMGWYRQAPGKERELVAAISWSGGRTYYADSVKGRFTISRDNAKNTVYLQMNSLKPEDTAVYYCAADDGPGFDYWGQGTQVTVSS | high polyreactivity
QVQLVESGGGLVQAGGSLRLSCAASGLIFGSYAMGWYRQAPGKERELVAASSRSGGSTYYADSVKGRFTISRDKAKNSVYLQMISLKPEDTAVYYFAADDYSSEYDYWGQGTQVTVSS | high polyreactivity
QVQLVESGGGLVQAGGSLRLSCAASGLIFGTKAMGCYRQAPGKERELVAAMSGSGGRTYYADSVKARFTISRDNAKNTVYLQMNSLKPEDTAVYYCASRFWRLHVGYGYSGQGTQVTVSS | high polyreactivity
QVQLVESGGGLVQAGGSLRLSCAASGLIFGTYAMGWYRQAPGKERELVATITRGGGSTYYADSVKGRFTISRDNAKNTVYLQMNSLKPEDTAVYDCAKTYFYGVRRFNYWGQGTQVTVSS | high polyreactivity
QVQLVESGGGLVQAGGSLRLSCAASGLIFGWNAMGGYRQAPGKERELVAAINSGGITNYADSVKGRFTISRDNAKNTVYLQMYSLKPDDTEVYYCAADVVQYGLDWYGEEYESWGQGTQVTVSS | low polyreactivity
QVQLVESGGGLVQAGGSLRLSCAASGLIFGWYAMGWYRQAPGKERELVAGISGSGGITYYADSVKGRFTISRDNAKNTVYLQMNSLKPEDTAVYYCNARYPRYYRGVIQYDFWGQGTQVTVSS | low polyreactivity
QVQLVESGGGLVQAGGSLRLSCAASGLIFHQYAMGWYRQAPGKERELVAAITRSGTRTYYADSVKGRFTISRDNAKNTVYLQMNSLKPEDTAVYYCAAADTQGVSMDYWGQGTQVTVSS | high polyreactivity
QVQLVESGGGLVQAGGSLRLSCAASGLIFIAYAMGWYRQATGKERELVAAISSSGGSTYYADSVKGRFTISRDNAKNTVYLQMTSLKREDTAVYYCAADRYAWGTGRYGYWGQGTQVTVSS | low polyreactivity
QVQLVESGGGLVQAGGSLRLSCAASGLIFIIYTRGWSRQAPGKERELVAAITRRGGITYYADSVKGRFTISRDNAKNTVYLQMNSLKPEDTAVYYCAVVRPYNIWYDYWGQGTQVTVSS | low polyreactivity
QVQLVESGGGLVQAGGSLRLSCAASGLIFITYAMGWYRQAPGKERELVATITLRGGSTYYADSVKGRFTISRDNAKNTVYLQMNSLKPEDTAVYYCAADVGYWGRSSGYPSDDYDYWGQGTQVTVSS | low polyreactivity
QVQLVESGGGLVQAGGSLRLSCAASGLIFIVYAMGWSRQAPGKERELVAAISWSGGSTYYADSVKGRFTISRDNAKNTVYLQMNSLKPEDTAVYYCAAPSSVRGKVISADYGYWGQGTQVTVSS | high polyreactivity
QVQLVESGGGLVQAGGSLRLSCAASGLIFKGYVMGWYRQAPGKERELVAAISRRGGSTYYADSVKGRFTISRDNAKNTVYLQMNSLKPEDTAVYYCATEVYDIDGWWGYDYWGQGTQVTVSS | high polyreactivity
QVQLVESGGGLVQAGGSLRLSCAASGLIFKKYTMGWYRQAPGKERELVASISKSGGSTYYADSVKARFTISRDNAKNTVYLQMNSLKPEDTAVYYCAVGSTDRVSAQGSYFTYDYWGQVTQVTVSS | low polyreactivity
QVQLVESGGGLVQAGGSLRLSCAASGLIFKRYAMGWYRQAPGKERELVAAISYSGGSTYYADSVKGRFTISRDNAKNTVYLQMNSLKPEDTAVYYCATVYYHRFDYWGQGTQVTVSS | high polyreactivity
QVQLVESGGGLVQAGGSLRLSCAASGLIFLAYTMGWYRLAPGKVRELVAAISYSDGSTYYADSVKARFTISRDNANNTVYVQMNSLKPEDTAVYYCAARPRPPLRSYDYWGQGTQVTVSA | low polyreactivity
QVQLVESGGGLVQAGGSLRLSCAASGLIFLQYVMGWSRQAPGKEREFVATITDDGDTTYYADSVKGRFTISRDNAKNTVYLQMNSLKPEDTAVYYCAADAEGSASKYDYWGQGTQVTVSS | low polyreactivity
QVQLVESGGGLVQAGGSLRLSCAASGLIFLVNAMGWYRQAPGKERELVAAIDRDGGITYADSVKGRFTISRDNAKNTVYLQMNSQKPEDTAVYYCAADPSSYGRFTYDYWGQGTQVTVSS | low polyreactivity
QVQLVESGGGLVQAGGSLRLSCAASGLIFLYYAMGSYRQAPGKERELVAAIRTNYADSVKGRFTISRDNAKNTVSLQMNSLKPEDTAVYYCIAVSGDSGDYWGQGTQVTVSS | low polyreactivity
QVQLVESGGGLVQAGGSLRLSCAASGLIFLYYTMGWYRQAPGKERELVAAISSAGRTNYADSVKGRFTISRDNAKNTVYLQMNSLKPEDTAVYYCNADGGWWARYGYWGQGTQVTVSS | low polyreactivity
QVQLVESGGGLVQAGGSLRLSCAASGLIFNWNDMGWYRQAPGKERELVAAISGDGGITYYADSVKGRFTISRDNAKNTVFLQMNSLKPEDTAVYYCNAGFTWGDWYDYWGQGTQVTVSS | low polyreactivity
QVQLVESGGGLVQAGGSLRLSCAASGLIFPANAMGWYRPAPGKERELVAAISWRGSSTYYADSVKGRFTISRDNAKNTVYLQMNSLKPEDTAVYYCNVYVRSGSLRDIGYKYDYWGQGTQVTVSS | high polyreactivity
QVQLVESGGGLVQAGGSLRLSCAASGLIFPRYTMGWYRQAPGKERELVAAIRGTGGSTYYADSVKGRFTISRDNAKNTVYLQMNSLKPEDTAVYYCATRGKSHGQQFNYWGQGTQVTVSS | high polyreactivity
QVQLVESGGGLVQAGGSLRLSCAASGLIFPSYVMGWYRLAPGKERELVAGITIGDRTYYADSVKGRFTISRDNAKNTVYLQMNSLKPEDTAVYYCAAVYTYAGRRFGYWGQGTQVTVSS | high polyreactivity
QVQLVESGGGLVQAGGSLRLSCAASGLIFPWNAMGWYRQAPGKERELVAAINGRDGSTYYADSVKGRFTISRDNAKNTVYLQMNSLKPEDTAVYYCAKGPSGVRTYREYDSWGQGTQVTVSS | low polyreactivity
QVQLVESGGGLVQAGGSLRLSCAASGLIFQFNAKGWYTQAPGKDREFVAAISGRADSTYYADSVKGRFTISRDNAKNTVYLQMNSLKPEDTAVYYCAALAYYHRYEYWGQGTQVTVSS | low polyreactivity
QVQLVESGGGLVQAGGSLRLSCAASGLIFQHNAMGWYRQAPGKERELVAAISRSAGSTYYADSVKGRFTISRDNAKNTVYLQMNSLKPEDTAVYYCAKRPTPTSKYDTVRYGYWGQGTQVTVSS | low polyreactivity
QVQLVESGGGLVQAGGSLRLSCAASGLIFQLYAMGWSRQAPGKERELLAAITIRDGSTYYADSVKGRFTISRDNAKNTVYFQMNSLKPEDTAFYFCAAEPVYYYPWSQYDYWGQGTQVTVSS | high polyreactivity
QVQLVESGGGLVQAGGSLRLSCAASGLIFQSYAMGWYRQAPGKERELVAVITWSGTSTYADSVKGRFTISRDNAKNTVYLQMNSLKPEDTAVYYCAASKYGSFTNFGYWGQGTQVTVSS | low polyreactivity
QVQLVESGGGLVQAGGSLRLSCAASGLIFQTYAMGWYRQAPGKERELVATISGSTGGTYYADSVKGRFTISRDNAKNTVYLQMNSLKPEDTAVYYCNASVFQSEYDYWGQGTQVTVSS | low polyreactivity

Source: the nanobody polyreactivity screen of Harvey et al. (2022)
